In US20220401536A1 (published 2022):
One block for each binder: values may come before it.

How the values were obtained:
[1] = target: mouse PD-1 (endogenous, on mouse CD4+ and CD8+ T cells) (mouse) (UniProt Q02242); experiment: cell-based or functional assay
[2] = target: T1, DD1α-HA (HA-tagged DD1α expressed in 293T cells or on Jurkat cells) (human, UniProt Q9H7M9 33-311); experiment: competition with DD1α-Ig and PD-1-Ig for binding to Jurkat cells transfected with DD1α, flow cytometry
T1 construct: also called Jurkat/DD1α; DD1α-transfected Jurkat cells; not shown: HA tag

Sequence of mouse PD-1 (endogenous, on mouse CD4+ and CD8+ T cells) (mouse) (Q02242 25-288): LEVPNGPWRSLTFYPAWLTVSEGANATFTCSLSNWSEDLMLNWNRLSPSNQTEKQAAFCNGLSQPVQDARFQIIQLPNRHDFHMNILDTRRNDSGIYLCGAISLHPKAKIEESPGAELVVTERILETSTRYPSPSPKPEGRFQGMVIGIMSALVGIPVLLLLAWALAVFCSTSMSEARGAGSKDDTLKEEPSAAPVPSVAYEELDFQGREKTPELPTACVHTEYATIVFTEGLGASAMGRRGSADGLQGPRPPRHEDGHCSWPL

CFSE- and Far Red-double-positive events: DD1α-/- CD11b+Gr-1+ MDSCs with PD-1-/- CD8+ T cells [1]: 1.36%
CFSE- and Far Red-double-positive events: DD1α-null CD11b+Gr-1+ MDSCs with Wt CD8+ T cells [1]: 7.1%
CFSE- and Far Red-double-positive events: Wt CD11b+Gr-1+ MDSCs with PD-1-/- CD8+ T cells [1]: 6.59%
CFSE- and Far Red-double-positive events: Wt CD11b+Gr-1+ MDSCs with Wt CD8+ T cells [1]: 22%
proliferation of CD4+ T cells (CFSE dilution) with DD1α-/- CD11b+Gr-1high MDSCs [1]: 70%
proliferation of CD8+ T cells (CFSE dilution) with DD1α-/- CD11b+Gr-1high MDSCs [1]: 63%
B1: mouse DD1α (endogenous, on mouse T cells or CD11b+Gr-1+ MDSCs) (receptor, UniProt Q9D659 33-308, looked up)
chain: FKVTTPYSLYVCPEGQNATLTCRILGPVSKGHDVTIYKTWYLSSRGEVQMCKEHRPIRNFTLQHLQHHGSHLKANASHDQPQKHGLELASDHHGNFSITLRNVTPRDSGLYCCLVIELKNHHPEQRFYGSMELQVQAGKGSGSTCMASNEQDSDSITAAALATGACIVGILCLPLILLLVYKQRQVASHRRAQELVRMDSNTQGIENPGFETTPPFQGMPEAKTRPPLSYVAQRQPSESGRYLLSDPSTPLSPPGPGDVFFPSLDPVPDSPNSEAI

binding result [2]: binds
B2: anti-DD1α monoclonal antibody 2B11 (antibody, V domains shown)
VH: EVQLVESGGDLVKPGGSLKLSCAASGFTFSNYGMSWVRQTPDKRLEYVATINSGGSYTYYPDSVKGRFTISRDNAKTTLYLQMSSLKSEDTAMYYCARIYDYDGDYYALDYWGQGTSVTVSS
VL: DVLMTQTPLSLPVSLGDQASISCRSSQSIVHTNGNTYLEWYLQKPGQSPKLLIYKVSNRFSGVPDRFSGSGSGTDFTLKISRVEAEDLGVYYCFQGSHVPWTFGGGTKLEIK
notes: Purified from hybridoma; also called DD1α-specific Ab 2B11
